Source: patent US20200347144A1 (SHANGHAI HYAMAB BIOTECH, published 2020)
Where a chain is given by its changes, count along the chain named.

B1: 289B6G6 (antibody, V domains shown)
VH: QVQLQESGPGLVRPSETLSLTCAVSGYSISSGYYWGWIRQPPGKGLEWIGSIFHSGNTYYNPSLKSRVIVSGDTSKNQFSLKLSSVTAADTAVYYCTRESSGFNVFDIWGQGTMVTVSS
VL: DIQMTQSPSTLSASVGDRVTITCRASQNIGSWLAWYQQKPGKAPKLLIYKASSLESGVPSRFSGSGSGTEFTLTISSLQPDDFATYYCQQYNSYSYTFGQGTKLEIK
B2: 170D7F2 (antibody, V domains shown)
VH: QVQLVQSGAEVKKPGASVKVSCKASGYTFTSYDINWVRQATGQGLEWMGWMNPNSGNTGYAQKFQGRVTMTRNTSISTAYMELSSLRSEDTAVYYCARETGPFDYWGQGTLVTVSS
VL: DIQMTQSPSSLSASVGDRVTITCRASQRINNYLNWYQQKPGKAPKLLIYGASSLQSGVPSRFSGSGSGTDFTLTISSLQPEDFATYYCQQSYSTPFTFGPGTKVDIK
B3: 182A5B3 (antibody, V domains shown)
VH: B2 VH with A61V
VL: not shown
B4: 118F3A2 (antibody, V domains shown)
VH: QVQLQQWGAGLLKPSETLSLTCGVYGGSFSTNYWSWIRQSPGKGLEWIGEINHSGNTEYNPSLKSRLTISIDTSKNQFSLKLTSVTAADTAVYYCARMGYHSPSFDFWGQGVLVTVSS
VL: KIVMTQSPATLSVSPGERATLPCRVSQGIGSNLAWYQQKPGQAPRLLIYGASTRATGVPARFSGSGSGSEFTLTISSLQSEDLALYYCQQYNNWPLTFGGGTKVEIK
B5: 52F4G2 (antibody, V domains shown)
VH: QVQLQESGPGLVKPSETLSLTCAVSGYSISSGYYWGWIRQPPGKGLEWIGSIFHSGSSYYNPSLKSRVTISVDTSKNQFSLKLRSVTAADTAVYYCARESSGWNCFDYWGQGTLVTVSS
VL: DIQMTQSPSTLSASVGDRVTITCRASQTISTWLAWYQQKPGKAPKLLIYKASNLESGVPSRFSGSGSGTEFTLTISSLQPDDFATYYCQQYNSYSITFGQGTRLEIK
B6: 23G3B8 (antibody, V domains shown)
VH: B5 VH with G26A, S58N, T74P, R84S, A88V, W103Y
VL: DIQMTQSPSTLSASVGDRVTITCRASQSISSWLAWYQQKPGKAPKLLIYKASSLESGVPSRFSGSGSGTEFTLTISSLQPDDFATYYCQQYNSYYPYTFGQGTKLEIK
B7: 172E3E3 (antibody, V domains shown)
VH: QVQLQESGPGLVKPSGTLSLTCAVSGGSISSSNWWSWVRQPPGKGLEWIGEIYHSGSTNYNPSLKSRVTISVDKSKNQLSLNLSSVTAADTAVYYCARQGGVAGTLYWYFDLWGRGTLVTVSS
VL: DIVMTQSPLSLPVTPGEPASISCRSSQGLLHSNGYNYLDWYLQKPGQSPQLLIYLGSNRASGVPDRFIGSGSGTDFTLKIRRVEAEDVGVYYCMQVLQTPWTFGQGTKVEIK
B8: 11H10C9 (antibody, V domains shown)
VH: QVQLVESGGGVVQPGRSLRLSCAASGFTFSSYAMHWVRQAPGKGLEWVAIIWYDGSNQYYADSVKGRFTISRDNSMNTLYLQMNSLRAEDTAVYYCARVEQWLVSYFDFWGQGTLVTVSS
VL: EIVMTQSPATLSVSPGERATLSCRASQSVSSNLAWYQQKPGQVPRLLIYGASTRATGIPARFSGSGSGTEFTLTISSLQSEDFAVYYCQQYNNWPTFGGGTKVEIK

target: T1, human 4-1BB, full length, on transfected cells (human, UniProt Q07011 24-255); test: FACS, CHOK1-h4-1BB cells; Ab 0.00064 ug/ml
T1 construct: whole, on cells; also called CHOK1-h4-1BB
From the text: (§1) The pIRES plasmid carrying the full-length gene of monkey-derived […] (the preparation method is the same as the preparation method of the pCpC vector carrying the human-derived IgG Fc fragment (hFc) in “Preparation of immunogen A” of the step (1) in Example 1, in which the database accession number of the amino acid sequence of the extracellular region of monkey 4-1BB protein (Phe19-Thr239) is G7PSE7) was transfected into CHOK1 cell line to obtain CHOK1 stable transfected cell line containing monkey 4-1BB (herein referred to as CHOK1-c4-1BB stable cell line). The CHOK1-h4-1BB stable cell line and the CHOK1-c4-1BB stable cell line were expanded and cultivated to 90% confluence in T-75 cell culture flasks. The medium was exhausted, and washed twice with HBSS buffer (Hanks Balanced Salt Solution, purchased from Invitrogen), and then the cells were treated and collected with enzyme-free cell dissociation solution (Versene solution, purchased from Life Technology). The cells were washed twice with HBSS buffer, and after cell counting, the cells were diluted with HBSS buffer to 2×10⁶ cells per ml, and 1% goat serum blocking solution was added, the percentage being the mass percentage. It was incubated on ice for 30 minutes, and then washed twice with HBSS buffer by centrifugation. The collected cells were suspended in FACS buffer (HBSS containing 1% BSA, the percentage was the mass percentage) to 2×10⁶ cells/mL, and 100 μl per well was added to a 96-well FACS reaction plate. The purified 4-1BB antibody test sample obtained in Example 2 was added, 100 microliters per well and incubated on ice for 2 hours. […] It was washed three times with FACS buffer by centrifugation, and 100 μl of fixative [4% (v/v) paraformaldehyde] per well was added to suspend cells, and washed twice with FACS buffer after 10 minutes by centrifugation. The cells were suspended with 100 microliters of FACS buffer, and the results were detected and analyzed with FACS (FACS Calibur, purchased from BD).

T1 sequence (Q07011 24-255): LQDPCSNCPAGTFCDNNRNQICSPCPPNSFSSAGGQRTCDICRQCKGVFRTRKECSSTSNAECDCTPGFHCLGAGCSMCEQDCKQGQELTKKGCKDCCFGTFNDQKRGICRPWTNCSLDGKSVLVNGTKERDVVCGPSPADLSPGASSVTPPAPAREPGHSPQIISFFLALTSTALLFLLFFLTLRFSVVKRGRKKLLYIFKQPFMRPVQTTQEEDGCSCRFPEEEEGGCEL

| average fluorescence intensity [MFI] | Binder |
| --- | --- |
| 8.9 | B1 |
| 4.9 | B2 |
| 5 | B3 |
| 10.8 | B4 |
| 11.7 | B5 |
| 11.2 | B6 |
| 49.5 | B7 |
| 6.4 | B8 |

target: T2, hFc-tagged human 4-1BB extracellular domain protein (4-1BB-hFc) (human, UniProt Q07011 24-186, limits assumed); test: ELISA, coated human 4-1BB-hFc; Ab 0.0001 ug/ml
T2 construct: also called immunogen A; 4-1BB^ECD-hFc; not shown: human IgG Fc fragment (hFc) of the pCpC vector
Procedure: (§2) The purified immunogen A (4-1BB-hFc), monkey 4-1BB-his, and mouse 4-1BB-his obtained in Example 1 [for the preparation method, see step 1 of Example 1, preparation of immunogen A], of which the extracellular domain of monkey-derived 4-1BB protein (purchased from ACRO biosystems), the extracellular domain of mouse 4-1BB protein (purchased from sino biological) or other immune detection point proteins respectively were diluted with PBS to a final concentration of 1.0 μg/mL, then added with […] per well to 96-well ELISA plate. It was sealed with plastic film and incubated at 4° C. overnight. The next day, the plate was washed twice with the plate-washing solution [PBS containing 0.01% (v/v) Tween20] and blocking solution [PBS containing 0.01% (v/v) Tween 20 and 1% (v/v) BSA] was added and blocked at room temperature for 2 hours. The blocking solution was discarded and 100 μl of the purified 4-1BB antibody obtained in Example 2 was added per well. After incubated at 37° C. for 2 hours, the plate was washed 3 times with a plate-washing solution [PBS containing 0.01% (v/v) Tween20]. A secondary antibody (purchased from Sigma) labeled with HRP (horseradish peroxidase) was added, and after incubated at 37° C. for 2 hours, the plate was washed 3 times with a plate-washing solution [PBS containing 0.01% (v/v) Tween20]. 100 μl of TMB substrate was added per well. After incubated for 30 minutes at room temperature, 100 μl of stop buffer (1.0N HCl) was added per well. The A450 nm values were read using an ELISA plate reader (SpectraMax 384plus, Molecular Device).

| OD450 nm [OD450 nm] | Binder |
| --- | --- |
| 0.07 | B1 |
| 0.13 | B2 |
| 0.13 | B3 |
| 0.43 | B4 |
| 0.26 | B5 |
| 0.07 | B6 |
| 0.14 | B7 |
| 0.15 | B8 |

target: T3, monkey 4-1BB on CHOK1 cells (monkey); test: FACS, CHOK1-c4-1BB cells; Ab 0.08 ug/ml
T3 construct: whole, on cells; also called CHOK1-c4-1BB
From the text: as §1

| average fluorescence intensity [MFI] | Binder |
| --- | --- |
| 179 | B1 |
| 96.3 | B2 |
| 118 | B3 |
| 114 | B4 |
| 130 | B5 |
| 154 | B6 |
| 47 | B7 |
| 82.6 | B8 |

target: T3, monkey 4-1BB on CHOK1 cells; test: FACS, CHOK1-c4-1BB cells; Ab 0.00064 ug/ml
From the text: as §1

| average fluorescence intensity [MFI] | Binder |
| --- | --- |
| 5.3 | B1 |
| 4 | B2 |
| 4.4 | B3 |
| 4.9 | B4 |
| 4.5 | B5 |
| 4.7 | B6 |
| 71.7 | B7 |
| 3.7 | B8 |

target: T3, monkey 4-1BB on CHOK1 cells; test: FACS, CHOK1-c4-1BB cells; Ab 10 ug/ml
From the text: as §1

| average fluorescence intensity [MFI] | Binder |
| --- | --- |
| 601 | B1 |
| 700 | B2 |
| 746 | B3 |
| 735 | B4 |
| 736 | B5 |
| 595 | B6 |
| 342 | B7 |
| 736 | B8 |

target: T2, hFc-tagged human 4-1BB extracellular …; test: ELISA, coated human 4-1BB-hFc; Ab 0.016 ug/ml
Procedure: as §2

| OD450 nm [OD450 nm] | Binder |
| --- | --- |
| 1.47 | B1 |
| 1.64 | B2 |
| 1.48 | B3 |
| 0.99 | B4 |
| 2.51 | B5 |
| 1.1 | B6 |
| 1.65 | B7 |
| 1.55 | B8 |

target: T1, human 4-1BB, full length, on …; test: FACS, CHOK1-h4-1BB cells; Ab 0.08 ug/ml
From the text: as §1

| average fluorescence intensity [MFI] | Binder |
| --- | --- |
| 453 | B1 |
| 183 | B2 |
| 200 | B3 |
| 346 | B4 |
| 410 | B5 |
| 399 | B6 |
| 172 | B7 |
| 200 | B8 |

target: T2, hFc-tagged human 4-1BB extracellular …; test: ELISA, coated human 4-1BB-hFc; Ab 10 ug/ml
Procedure: as §2

| OD450 nm [OD450 nm] | Binder |
| --- | --- |
| 2.8 | B1 |
| 3.44 | B2 |
| 3.5 | B3 |
| 2.73 | B4 |
| 3.06 | B5 |
| 2.78 | B6 |
| 3.43 | B7 |
| 3.55 | B8 |

target: T3, monkey 4-1BB on CHOK1 cells; test: FACS, CHOK1-c4-1BB cells; Ab 2 ug/ml
From the text: as §1

| average fluorescence intensity [MFI] | Binder |
| --- | --- |
| 597 | B1 |
| 621 | B2 |
| 712 | B3 |
| 688 | B4 |
| 679 | B5 |
| 586 | B6 |
| 305 | B7 |
| 576 | B8 |

target: T1, human 4-1BB, full length, on …; test: FACS on CHOK1-h4-1BB cells, Alexa 488 secondary antibody, average fluorescence intensity
From the text: as §1

| EC50 (read off the curve) [µg/mL] | Binder |
| --- | --- |
| ~0.2 | B2 |
| ~0.2 | B3 |
| ~0.05 | B4 |
| ~0.05 | B5 |
| ~0.1 | B7 |
| ~0.1 | B8 |

target: T3, monkey 4-1BB on CHOK1 cells; test: FACS, CHOK1-c4-1BB cells; Ab 0.0032 ug/ml
From the text: as §1

| average fluorescence intensity [MFI] | Binder |
| --- | --- |
| 14.1 | B1 |
| 8.5 | B2 |
| 10.4 | B3 |
| 11.8 | B4 |
| 13.7 | B5 |
| 10.8 | B6 |
| 6.6 | B7 |
| 10.4 | B8 |

target: T1, human 4-1BB, full length, on …; test: FACS, CHOK1-h4-1BB cells; Ab 0.016 ug/ml
From the text: as §1

| average fluorescence intensity [MFI] | Binder |
| --- | --- |
| 101 | B1 |
| 48.8 | B2 |
| 52.7 | B3 |
| 125 | B4 |
| 141 | B5 |
| 126 | B6 |
| 46.9 | B7 |
| 58.7 | B8 |
